For experiment [1], the target named is Mouse serum rVP147-AlOH (mouse 1). In words: flow cytometry, inhibition of surface labeling by serum rVP147-AlOH (mouse 1). (Flow cytometry measures light scatter and fluorescence of single cells or particles in a stream.)
The target of experiment [2] is Mouse serum rVP56-AlOH (mouse 2). In words: flow cytometry, inhibition of surface labeling by serum rVP56-AlOH (mouse 2).
The target in experiment [3] is Mouse serum rVP147-QuilA (mouse 1). In words: flow cytometry, inhibition of surface labeling by serum rVP147-QuilA (mouse 1).
Experiment [4] addresses Mouse serum rVP56-AlOH (mouse 1). The experiment can be described thus: flow cytometry, inhibition of surface labeling by serum rVP56-AlOH (mouse 1).
The target in experiment [5] is Mouse serum rVP147-AlOH (mouse 2). In words: flow cytometry, inhibition of surface labeling by serum rVP147-AlOH (mouse 2).
Experiment [6] has as its target Mouse serum rVP147-QuilA (mouse 2). The experiment can be described thus: flow cytometry, inhibition of surface labeling by serum rVP147-QuilA (mouse 2).
In experiment [7] the target is Mouse serum rVP56-QuilA (mouse 1). The experiment can be described thus: flow cytometry, inhibition of surface labeling by serum rVP56-QuilA (mouse 1).
The target of experiment [8] is Mouse serum rVP56-QuilA (mouse 2). The experiment can be described thus: flow cytometry, inhibition of surface labeling by serum rVP56-QuilA (mouse 2).

The source of these data is patent US7262024.

B1: New 139 (protein)
chain: MQITYTDDEIQVAKLAGKYTTEDGYIFDGGWIKKDSLSEAERAAAQAYAKEKGLTPPSTDHQDSGNTEAKGAEAIYNRVKAAKKVPLDRMPYNLQYTVEVKNGSLIIPHHDHYHNIKFEWFDEGLYEAPKGYSLEDLLATVKYYVEGGNASDHVRKNKADQDSKPDEDKEHDEVSEPTHPESDEKENHAGLNPSADNLYKPSTDTEETEEEAEDTTDEAEIPGGPSIRQNAMETLTGLKSSLLLGTKDNNTISAEVDSLLALLKESQPAPIQ
As a reminder, the % inhibition is how much of the control response was suppressed. Low readings indicate little suppression, high ones strong suppression. As for B1, the % inhibition in experiment [1] was determined as 53.8%; in experiment [2], 0%; in experiment [3], 41.3%; in experiment [4], 0%; in experiment [5] it was 49.7%; in experiment [6], 40.7%. Also, in experiment [7], the % inhibition is 0.2%.

B2: VP147 (protein)
chain: MQITYTDDEIQVAKLAGKYTTEDGYIFDGGWIKKDSLSEAERAAAQAYAKEKGLTPPSTDHQDSGNTEAKGAEAIYNRVKAAKKVPLDRMPYNLQYTVEVKNGSLIIPHHDHYHNIKFEWFDEGLYEAPKGYSLEDLLATVKYYVEGGNASDHVRKNKADQDSKPDEDKEHDEVSEPTHPESDEKENHAGLNPSADNLYKPSTDTEETEEEAEDTTDEAEIPGGPSIRQNAMETLTGLKSSLLLGTKDNNTISAEVDSLLALLKESQPAPIQGGQIGQPTLPNNSLATPSPSLPINPGTSHEKHEEDGYGFDANRIIAEDESGFVMSHGDSNHYFFKKDLTEEQIKAAQKHLEEVKTSHNGLDSLSSHEQDYPGNAKEMKDLDKKIEEKIAGIMKQYGVKRESIVVNKEKNAIIYPSGDHHHADPIDEHKPVGIGHSHSNYELFKPEEGVAKKEGNKVYTGEELTNVVNLLKNSTFNNQNFTLANGQKRVSFSFPPELEKKLGINMLVKLITPDGKVLEKVSGKVFGEGVGNIANFELDQPYLPGQTFKYTIASKDYPEVSYDGTFTVPTSLAYKMASQTIFYPFHAGDTYLRVNPQFAVPKGTDALVRVFDEFHGNAYLENNYKVGEIKLPIPKLNQGTTRTAGNKIPVTFMANAYLDNQSTYIVEVPILEKENQTDKPSILPQFKRNKAQENSKLDEKVEEPKTSEKVEKEKLSETGNSTSNSTLEEVPTVDPVQEKVAKFAESYGMKLENVLFNMDGTIELYLPSGEVIKKNMADFTGEAPQGNGENKPSENGKVSTGTVENQPTENKPADSLPEAPNEKPVKPENSTDNGMLNPEGNVGSDPMLDPALEEAPAVDPVQEKLEKFTASYGLGLDSVIFNMDGTIELRLPSGEVIKKNLSDFIA
Consider B2, for which the % inhibition came to 99.7% in experiment [1]; 100% in experiment [2]; 99.7% in experiment [3]; 99.3% in experiment [8]; 99.6% in experiment [4]; 99.8% in experiment [5]. The % inhibition in experiment [6] came to 99.6%; in experiment [7], 99.5%.

B3: VP56 (protein)
chain: MQIGQPTLPNNSLATPSPSLPINPGTSHEKHEEDGYGFDANRIIAEDESGFVMSHGDSNHYFFKKDLTEEQIKAAQKHLEEVKTSHNGLDSLSSHEQDYPGNAKEMKDLDKKIEEKIAGIMKQYGVKRESIVVNKEKNAIIYPSGDHHHADPIDEHKPVGIGHSHSNYELFKPEEGVAKKEGNKVYTGEELTNVVNLLKNSTFNNQNFTLANGQKRVSFSFPPELEKKLGINMLVKLITPDGKVLEKVSGKVFGEGVGNIANFELDQPYLPGQTFKYTIASKDYPEVSYDGTFTVPTSLAYKMASQTIFYPFHAGDTYLRVNPQFAVPKGTDALVRVFDEFHGNAYLENNYKVGEIKLPIPKLNQGTTRTAGNKIPVTFMANAYLDNQSTYIVEVPILEKENQTDKPSILPQFKRNKAQENSKLDEKVEEPKTSEKVEKEKLSETGNSTSNSTLEEVPTVDPVQEKVAKFAESYGMKLENVLFNMDGTIELYLPSGEVIKKNMADFTGEAPQGNGENKPSENGKVSTGTVENQPTENKPADSLPEAPNEKPVKPENSTDNGMLNPEGNVGSDPMLDPALEEAPAVDPVQEKLEKFTASYGLGLDSVIFNMDGTIELRLPSGEVIKKNLSDFIA
In the case of B3, the % inhibition in experiment [1] came out at 50%; in experiment [2], 100%; in experiment [3], 68.1%; in experiment [8], 99.8%; in experiment [4] it was 99.7%; in experiment [5], 61.6%. Also, the % inhibition is 74.1% in experiment [6] and 99.7% in experiment [7].
